From patent US20060024314A1, “Antibodies and cyclic peptides which bind CEA (carcinoembryonic antigens) and their use as cancer therapeutics” (priority 1998, published 2006)
Bridge positions count the residues as written; N and C are the ends.

How the values were obtained:
CEA mutant D82N (human) = CEA mutant D82N (human) (UniProt P06731); assay: cell-based or functional assay
CEA mutant Q80R (human) = CEA mutant Q80R (human) (UniProt P06731); assay: cell-based or functional assay
[1] = molecular target: CEA double mutant Q44R+I46V (human) (UniProt P06731); assay: cell-based or functional assay
[2] = tested on: CEA-mediated intercellular adhesion; conditions: from references (29) and (16); cited from earlier work
[3] = molecular target: T1, human carcinoembryonic antigen (CEA), wild type (human, UniProt P06731 35-685, GPI membrane anchor); assay: cell-based or functional assay
T1 sequence (looked up): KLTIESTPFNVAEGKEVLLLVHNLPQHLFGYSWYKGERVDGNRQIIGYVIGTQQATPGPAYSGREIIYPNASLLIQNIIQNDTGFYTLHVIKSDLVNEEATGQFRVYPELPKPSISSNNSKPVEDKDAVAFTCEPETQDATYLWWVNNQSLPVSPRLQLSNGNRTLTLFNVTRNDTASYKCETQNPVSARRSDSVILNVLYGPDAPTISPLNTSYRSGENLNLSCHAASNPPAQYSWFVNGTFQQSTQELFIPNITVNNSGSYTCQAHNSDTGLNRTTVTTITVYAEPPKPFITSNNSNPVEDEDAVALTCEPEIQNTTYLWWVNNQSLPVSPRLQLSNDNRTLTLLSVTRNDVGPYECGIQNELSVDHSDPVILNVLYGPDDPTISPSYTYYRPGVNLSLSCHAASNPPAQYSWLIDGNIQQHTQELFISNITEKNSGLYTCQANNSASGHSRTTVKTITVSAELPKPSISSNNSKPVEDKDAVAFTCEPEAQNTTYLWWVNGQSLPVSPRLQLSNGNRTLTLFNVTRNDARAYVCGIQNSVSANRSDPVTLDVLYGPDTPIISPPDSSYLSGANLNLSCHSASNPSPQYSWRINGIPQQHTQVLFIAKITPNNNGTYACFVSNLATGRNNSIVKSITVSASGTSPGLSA

## CEA mutant D82N (from UniProt P06731 35-702)
CEA mutant D82N (human)
  degree of differentiation of L6 transfectants: 100%

## CEA mutant Q80R (from UniProt P06731 35-702)
CEA mutant Q80R (human)
  degree of differentiation of L6 transfectants: 81%

## CEA double mutant Q44R+I46V (from UniProt P06731 35-702)
[1]
  degree of differentiation of L6 transfectants: 100%

## H-CQNDTGC-OH (disulfide 1-7; SMILES C[C@@H](O)[C@@H]1NC(=O)[C@H](CC(=O)O)NC(=O)[C@H](CC(N)=O)NC(=O)[C@H](CCC(N)=O)NC(=O)[C@@H](N)CSSC[C@@H](C(=O)O)NC(=O)CNC1=O) [cyclized peptide QNDTG, cyclized peptide representing subdomain 3 of the CEA N domain]
[2]
  inhibition of CEA-mediated intercellular adhesion: effective in inhibiting CEA-mediated intercellular adhesion

B1: cyclized peptide H-CQNDTGC-OH (subdomain 3) (peptide)
peptide: H-CQNDTGC-OH
modifications: disulfide 1-7
SMILES: C[C@@H](O)[C@@H]1NC(=O)[C@H](CC(=O)O)NC(=O)[C@H](CC(N)=O)NC(=O)[C@H](CCC(N)=O)NC(=O)[C@@H](N)CSSC[C@@H](C(=O)O)NC(=O)CNC1=O
[3]
  % fusion of L6(CEA) cells (release of the myogenic differentiation block), peptide at 100 µM: 36%

B2: cyclized peptide H-CGNRQIIC-OH (subdomain 2) (peptide)
peptide: H-CGNRQIIC-OH
modifications: disulfide 1-8
SMILES: CC[C@H](C)[C@@H]1NC(=O)[C@H](CCC(N)=O)NC(=O)[C@H](CCCNC(=N)N)NC(=O)[C@H](CC(N)=O)NC(=O)CNC(=O)[C@@H](N)CSSC[C@@H](C(=O)O)NC(=O)[C@H]([C@@H](C)CC)NC1=O
[3]
  % fusion of L6(CEA) cells (release of the myogenic differentiation block), peptide at 100 µM: 28%

B3: cyclized peptide H-CGYSWYKC-OH (subdomain 1) (peptide)
peptide: H-CGYSWYKC-OH
modifications: disulfide 1-8
SMILES: NCCCC[C@@H]1NC(=O)[C@H](Cc2ccc(O)cc2)NC(=O)[C@H](Cc2c[nH]c3ccccc23)NC(=O)[C@H](CO)NC(=O)[C@H](Cc2ccc(O)cc2)NC(=O)CNC(=O)[C@@H](N)CSSC[C@@H](C(=O)O)NC1=O
[3]
  % fusion of L6(CEA) cells (release of the myogenic differentiation block), peptide at 100 µM: 18%
